According to patent publication US20070212679:

Biological target: T1, human GST-E1 (Boston Biochem), P22314
T1 chain: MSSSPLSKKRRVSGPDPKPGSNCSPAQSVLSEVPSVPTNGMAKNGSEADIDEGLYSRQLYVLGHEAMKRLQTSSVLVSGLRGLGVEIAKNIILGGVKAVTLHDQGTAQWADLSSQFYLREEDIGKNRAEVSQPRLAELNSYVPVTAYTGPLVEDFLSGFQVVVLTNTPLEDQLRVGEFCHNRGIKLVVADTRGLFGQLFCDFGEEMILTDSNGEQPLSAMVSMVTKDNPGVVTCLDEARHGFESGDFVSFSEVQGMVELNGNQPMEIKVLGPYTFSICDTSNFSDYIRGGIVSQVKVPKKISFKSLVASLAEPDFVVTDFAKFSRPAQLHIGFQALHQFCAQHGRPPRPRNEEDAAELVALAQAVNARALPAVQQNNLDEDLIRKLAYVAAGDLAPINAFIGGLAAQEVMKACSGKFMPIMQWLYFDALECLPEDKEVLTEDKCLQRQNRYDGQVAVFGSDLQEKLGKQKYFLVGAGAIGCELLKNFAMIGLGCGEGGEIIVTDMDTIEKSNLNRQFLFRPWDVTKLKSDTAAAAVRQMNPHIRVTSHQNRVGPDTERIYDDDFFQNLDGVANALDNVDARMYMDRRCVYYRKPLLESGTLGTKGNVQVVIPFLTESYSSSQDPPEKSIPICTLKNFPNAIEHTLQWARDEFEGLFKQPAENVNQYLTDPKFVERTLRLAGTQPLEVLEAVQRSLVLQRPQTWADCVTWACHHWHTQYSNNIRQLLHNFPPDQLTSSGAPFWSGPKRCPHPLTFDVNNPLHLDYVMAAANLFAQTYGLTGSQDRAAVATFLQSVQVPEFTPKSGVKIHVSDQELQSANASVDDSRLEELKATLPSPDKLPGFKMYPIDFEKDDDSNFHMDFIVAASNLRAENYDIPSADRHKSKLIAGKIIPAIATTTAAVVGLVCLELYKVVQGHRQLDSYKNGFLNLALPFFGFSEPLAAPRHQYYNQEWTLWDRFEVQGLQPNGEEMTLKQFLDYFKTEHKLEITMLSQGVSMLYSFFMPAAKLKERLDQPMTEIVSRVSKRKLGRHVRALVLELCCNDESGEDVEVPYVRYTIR

B1: His6-Parkin (full-length human Parkin fused to an N-terminal histidine tag, from E. coli, refolded) (protein)
chain: IYICTIIIIISSGLVPRGSGMKETAAAKFERQHMDSPDLGTDDDDKAMADIGSAATMIVFVRFNSSHGFPVEVDSDTSIFQLKEVVAKRQGVPADQLRVIFAGKELRNDWTVQNCDLDQQSIVHIVQRPWRKGQEMNATGGDDPRNAAGGCEREPQSLTRVDLSSSVLPGDSVGLAVILHTDSRKDSPPAGSPAGRSIYNSFYVYCKGPCQRVQPGKLRVQCSTCRQATLTLTQGPSCWDDVLIPNRMSGECQSPHCPGTSAEFFFKCGAHPTSDKETPVALHLIATNSRNITCITCTDVRSPVLVFQCNSRHVICLDCFHLYCVTRLNDRQFVHDPQLGYSLPCVAGCPNSLIKELHHFRILGEEQYNRYQQYGAEECVLQMGGVLCPRPGCGAGLLPEPDQRKVTCEGGNGLGCGFAFCRECKEAYHEGECSAVFEASGTTTQAYRVDERAAEQARWEAASKETIKKTTKPCPRCHVPVEKNGGCMHMKCPQPQCRLEWCWNCGCEWNRVCMGDHWFDV
For B1, the “ubiquitination of Parkin in the absence of UbcH7 (biotin-ubiquitin detected on blot with NeutrAvidin-HRP)” value was “some reaction product was seen in the absence of UbcH7 when Parkin was incubated with E1 and ubiquitin for 90 minutes”.
